Source: IntAct's records for PubMed 18192679

B1: Huntingtin-associated protein 1 (Homo sapiens), P54257-2 (parent)
chain: MRPKRLGRCCAGSRLGPGDPAALTCAPSPSASPAPEPSAQPQARGTGQRVGSRATSGSQFLSEARTGARPASEAGAKAGARRPSAFSAIQGDVRSMPDNSDAPWTRFVFQGPFGSRATGRGTGKAAGIWKTPAAYVGRRPGVSGPERAAFIRELEEALCPNLPPPVKKITQEDVKVMLYLLEELLPPVWESVTYGMVLQRERDLNTAARIGQSLVKQNSVLMEENSKLEALLGSAKEEILYLRHQVNLRDELLQLYSDSDEEDEDEEEEEEEKEAEEEQEEEEAEEDLQCAHPCDAPKLISQEALLHQHHCPQLEALQEKLRLLEEENHQLREEASQLDTLEDEEQMLILECVEQFSEASQQMAELSEVLVLRLENYERQQQEVARLQAQVLKLQQRCRMYGAETEKLQKQLASEKEIQMQLQEEETLPGFQETLAEELRTSLRRMISDPVYFMERNYEMPRGDTSSLRYDFRYSEDREQVRGFEAEEGLMLAADIMRGEDFTPAEEFVPQEELGAAKKVPAEEGVMEEAELVSEETEGWEEVELELDEATRMNVVTSALEASGLGPSHLDMNYVLQQLANWQDAHYRRQLRWKMLQKGECPHGALPAASRTSCRSSCR

Variants of: B1
Details: with hd_human HTT

effect of a mutation on the interaction	Variant
increasing interaction	T441M
